Assay results: the supplement of paper PMC9170038

Key:
[1] = tested on: MS2 coat protein; assay: apparent KD of MS2 coat protein; designed switch direction (-1 OFF switch, 1 ON switch): 1; higher = weaker reporter binding; details: Eterna round: R98
Experimental: (§1)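 RNA-MaP: designed FMN/MS2 RNA switches (84 nt design region) are transcribed on-chip within common flanks and titrated with SNAP-549-labelled MS2 coat protein (about 1-3000 nM) in 100 mM Tris pH 7.5, 80 mM KCl, 4 mM MgCl2, without or with 200 uM FMN. Median apparent KD per design; activation ratio = KD,OFF / KD,ON.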

[2] = tested on: MS2 coat protein; assay: apparent KD of MS2 coat protein; higher = weaker reporter binding; details: Eterna round: R101
Experimental: as §1

[3] = tested on: MS2 coat protein; assay: apparent KD of MS2 coat protein, switch ON state; designed switch direction (-1 OFF switch, 1 ON switch): 1; higher = weaker reporter binding; details: FMN input: 0 or 200 uM; Eterna round: R93 (includes R88 designs)
How it was run: (§2)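 Illumina sequencing clusters were used for on-chip transcription of designed RNA switches. Titration with SNAP-549-labelled MS2 coat protein followed, in twofold steps from 0.7 or 1.5 nM to 3 µM in 100 mM Tris-HCl pH 7.5, 80 mM KCl, 4 mM MgCl2, without or with constant ligand. Apparent KD is each design's median of fits to normalised cluster binding curves.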

[4] = tested on: MS2 coat protein; assay: apparent KD of MS2 coat protein, switch OFF state (with FMN for OFF switches, without FMN for ON switches); designed switch direction (-1 OFF switch, 1 ON switch): 1; higher = weaker reporter binding; details: FMN input: 0 or 200 uM; Eterna round: R93 (includes R88 designs)
How it was run: as §2

AAAACAUGAGGAUCACCCAUGUAAAGAUCGGUUAAUAGAAGUGAGGAUAUACAAAAUUUUAGGUAGUAGAAGGCACAGGGUACA [JR_SSNG3_Sub046]
apparent KD of MS2 coat protein ([1]; input ligand: FMN 200 uM): 31.5 nM | apparent KD of MS2 coat protein ([1]; input ligand: none): 33 nM

AAAACAUGAGGAUCACCCAUGUAAAGAUCGGUUAAUAGAAGUGAGGAUAUGCUUAAAAUAAGGUAGCAGAAGGCACUGGGUACA [JR_SSNG3_Sub040]
apparent KD of MS2 coat protein ([1]; input ligand: FMN 200 uM): 27.8 nM | apparent KD of MS2 coat protein ([1]; input ligand: none): 23.4 nM

AAAACAUGAGGAUCACCCAUGUAUUGAACGGUUAAUAAAAGUGAGGAUAUACAAAAUUUUAUAUAGUAGAAGGCACUGGGUACA [JR_SSNG3_Sub009]
apparent KD of MS2 coat protein ([1]; input ligand: FMN 200 uM): 20.8 nM | apparent KD of MS2 coat protein ([1]; input ligand: none): 21.2 nM

AAAUAAAAUAUAGGAUAUGGAAACAUGAGGAUCACCCAUGUAUGAUAAGAUAAAUAAUGAUAUAGCCAGAAGGAUAAAAUAUAA [LRO006_SS NG 2]
apparent KD of MS2 coat protein ([1]; input ligand: FMN 200 uM): 42.7 nM | apparent KD of MS2 coat protein ([1]; input ligand: none): 33 nM

AAAUAACUCGAAGGAUAUCAGGGUGCACCUCAGUAAAACUGAGGUGCACCCUGAGAAGGUCGAGGAUCACCCGACCUAAAUAAA [#SharedSequence SLExNG1: 5-2] (puzzle (switch architecture): Small Loop Exclusion NG 1)
apparent KD of MS2 coat protein ([2]; input ligand: FMN 200 uM): 19.8 nM | apparent KD of MS2 coat protein ([2]; input ligand: none): 8.38 nM

AAAUAACUCGAAGGAUAUGACCCUCGAGGUGACUAAAAGUCACCUCGAGGGUCAGAAGGUCGAGGAUCACCCGACCUAAAUAAA [#SharedSequence SLExNG1: 5-1] (puzzle (switch architecture): Small Loop Exclusion NG 1)
apparent KD of MS2 coat protein ([2]; input ligand: FMN 200 uM): 36.8 nM | apparent KD of MS2 coat protein ([2]; input ligand: none): 10.2 nM

AAAUAACUUGAAGGAUAUGACCCUCGAGGUGACUAAAAGUCACCUCGAGGGUCAGAAGGUCGAGGAUCACCCGACCUAAAUAAA [#SharedSequence SLExNG1: 6-1] (puzzle (switch architecture): Small Loop Exclusion NG 1)
apparent KD of MS2 coat protein ([2]; input ligand: FMN 200 uM): 6.69 nM | apparent KD of MS2 coat protein ([2]; input ligand: none): 7.14 nM

ACUGUCGCGUGAGGAUAUGGUCUGCAGUGCUGACCAGAAGGCAUGUCGAUAGACAUGAGGAUCACCCAUGUGGUUAGGGCGGAA [salish99_SSNG1_R02_019]
apparent KD of MS2 coat protein ([1]; input ligand: FMN 200 uM): 194 nM | apparent KD of MS2 coat protein ([1]; input ligand: none): 298 nM

AGAACAUGAGGAUCACCCAUGUGAAGGUCGGCGUAUAAGGGUGAGGAUAUGCUUAAAAUAAGGAAGCAGAAGGUACUUGGUGCG [SameState #80 NG3]
apparent KD of MS2 coat protein ([1]; input ligand: FMN 200 uM): 75.3 nM | apparent KD of MS2 coat protein ([1]; input ligand: none): 165 nM

AUUACAUGAGGAUCACCCAUGUACAGAACGUUUCAUUAAAGUGAGGAUAUACGAAAUUUAAAAGCGUAGAAGGCACUGGGUACA [SameState #43 NG3]
apparent KD of MS2 coat protein ([1]; input ligand: FMN 200 uM): 24.2 nM | apparent KD of MS2 coat protein ([1]; input ligand: none): 27.8 nM

GCAUACAUUCGAGGAUAUCGGUGAACAAAUUAGCGAGAAGGCGAUAUAAUUUUUAAACUUAUUGACAUGAGGAUCACCCAUGUA [JR_SSNG1_Sub011]
apparent KD of MS2 coat protein ([1]; input ligand: FMN 200 uM): 20.5 nM | apparent KD of MS2 coat protein ([1]; input ligand: none): 24.8 nM

GGACAUGUCGUUUACAUGAGGAUCACCCAUGUCGAUGGACAUGAGGAUAUGGAUCCGAAUCGGAUCCAGAAGGCAUGCAUGUCC [SameState #7 NG3]
apparent KD of MS2 coat protein ([1]; input ligand: FMN 200 uM): 17.9 nM | apparent KD of MS2 coat protein ([1]; input ligand: none): 45.2 nM

GGACGUCACAUAAACAUGAGGAUCACCCAUGUCAAAAGACAUGAGGAUAUGGAUGCGAAACGCAUCCAGAAGGCAUGGACGUCC [EliMod 4 - Jieux - Same State NG 3]
apparent KD of MS2 coat protein ([1]; input ligand: FMN 200 uM): 57.3 nM | apparent KD of MS2 coat protein ([1]; input ligand: none): 728 nM

GGACUCACUUGAGGAUAUCGAGUGGAUAACACUCGAGAAGGCAGGGAAACCUGAGGAUCACCCAGGUAAGAGUCCAAUAAUAAA [Same State NG1 - A3C, U17G Submission 2D]
apparent KD of MS2 coat protein ([1]; input ligand: FMN 200 uM): 19.9 nM | apparent KD of MS2 coat protein ([1]; input ligand: none): 42.1 nM

GGAGACCUCACAGGAUAUGCUGGACUUUGUCCAGCAGAAGGGUGAAAACAUGAGGAUCACCCAUGUAUGGUCUCCAAAUUUAAU [Denovo 57]
apparent KD of MS2 coat protein ([1]; input ligand: FMN 200 uM): 30.4 nM | apparent KD of MS2 coat protein ([1]; input ligand: none): 632 nM

GGGAGGAAGAGAGAGGAUAUCCAAAGGAAAACAUGAGGAUCACCCAUGUAAAAGGUAGGAAAUUGGGAGAAGGCUCAAGAGAAUG [salish99-ss2-055]
apparent KD of MS2 coat protein [3]: 24.1 nM | apparent KD of MS2 coat protein [4]: 28.3 nM

GGUACAGCUAGUUAGGAUAUCAGGUGUAAGACAUGAGGAUCACCCAUGUCCUAAGAACAGGUAACUGAGAAGGAACAGGGCGUCC [JR_SS002_Sub415]
apparent KD of MS2 coat protein [3]: 27.3 nM | apparent KD of MS2 coat protein [4]: 90 nM

GGUUUCAGGAUAGGAUAUGGCGUGACAUGGCGGCCAGAAGGAUCCUCGGGAACAUGAGGAUCACCCAUGUGACCGUGUCGAGUC [Biveedve]
apparent KD of MS2 coat protein ([1]; input ligand: FMN 200 uM): 190 nM | apparent KD of MS2 coat protein ([1]; input ligand: none): 741 nM

GUAGAACAUGAGGAUCACCCAUGUGAAGACGCAUGAGGAUAUAUAAGUAAAUAGCAUAAGAUAGAAGGCAUGAUAA [JR_SS001_Sub1702]
apparent KD of MS2 coat protein [3]: 76 nM | apparent KD of MS2 coat protein [4]: 113 nM
